The term EC50 denotes the midpoint of the concentration-response curve. What is called Kd is the constant that tells how readily two partners part at equilibrium. One may read the koff as the first-order rate constant of dissociation. Usually kon stands for the second-order rate constant of association. The term IC50 denotes the concentration that gives 50% inhibition. Read a low IC50 as inhibition by little substance. Broadly, the EC50 (read off the curve) is the concentration that produces a half-maximal response. A higher EC50 (read off the curve) goes with lower potency in that assay.

The source of these data is US20200362047A1 (CRESCENDO BIOLOGICS, published 2020).

Assay [1] has as its target T1, human PSMA expressed on cells (human, UniProt Q04609 1-750).
T1 construct: One molecule for both cell lines (CHO human PSMA, DU145 PSMA); the cell line stands under assay; also called CHO human PSMA; CHO PSMA
Put plainly: FMAT, CHO human PSMA cells. The protocol: (§1) Binding of His-tagged molecules to CHO human CD137, CHO parent, CHO human PSMA, DU145 PSMA and DU145 parent cells was assessed using Fluorescence Microvolume Assay Technology (FMAT). All reagents were prepared in FMAT assay buffer (pH 7.4) containing PBS, 0.1% Bovine Serum Albumin, 0.05% Sodium Azide. Serially diluted samples were transferred into 384 well black clear-bottomed assay plates (Costar cat. no. 3655) and incubated for a minimum of 2 hours at room temperature with 1.5 nM Anti-His (Millipore cat. no. 05-949), […] Goat Anti-Mouse Alexa Fluor-488 (Jackson ImmunoResearch cat. no. 115-545-071) and 2000 cells/well pre-stained with DRAQ5 (Thermo Scientific cat. no. 62251). Fluorescence emission was then measured on the TTP Mirrorball plate reader in the FL2 (502 nm-537 nm) and FL5 (677-800 nm) channels following excitation at 488 nm and 640 nm. Data was gated on FL5 perimeter and peak intensity and the FL2 median mean fluorescence intensity of the gated data used for determination of VH binding. Monovalent CD137 specific Humabody® VH, bispecific and trispecific molecules with a CD137 binding arm bound to CHO CD137 expressing cells. Monovalent PSMA specific Humabody® VH, bispecific and trispecific molecules with a PSMA binding arm bound to PSMA expressing cells.

Assay [2] deals with T2, PSMA-his (R&D Systems cat no. 4234-ZN) (human, UniProt Q04609 44-750).
T2 construct: Bought protein; also called Human PSMA; not shown: His tag
Put plainly: BLI (Octet RED384), PSMA-his amine-coupled to AR2G sensors, 1:1 model. As to the method:
(§2) The kinetics of monovalent and bispecific Humabody VH were determined on a ForteBio Octet RED 384 instrument. To study the interaction with the antigens, CD137-Fc tag protein (Acro Biosystems cat no. 41B-H5258) or PSMA-his (R&D Systems cat no. 4234-ZN) was immobilised onto AR2G biosensors (ForteBio cat no. 18-5082) by amine coupling. Monovalent VH and bispecific molecules were serially diluted (typically 1:2 dilution series starting between 12-25 nM, at the highest concentration) in kinetics buffer (0.1% BSA, 0.02% Tween, 1×PBS) and binding to the immobilised proteins was studied during the association and dissociation phases. PSMA binding was measured using 180 seconds association and 600 seconds dissociation phases. CD137 binding was measured 180 seconds association and 600 seconds dissociation phases. Reference subtracted data were fitted to a 1:1 binding model using the ForteBio Octet Data Analysis software.
In general terms: In BLI a coated tip is dipped into the sample, and binding shifts an interference pattern.

Assay [3] addresses T3, human CD137 expressed on the surface of CHO cells (human, UniProt Q07011 24-255).
T3 construct: Also used for the Jurkat reporter cells that express human CD137 (functional rows); also called CHO human CD137 cells; CHO huCD137
Put plainly: FMAT ligand inhibition, CD137 Ligand on CHO human CD137 cells. Summed up: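 Purified Humabody VH was tested in an FMAT format for blocking human CD137 ligand binding to CHO cells expressing human CD137. FL2 median fluorescence was measured and background from excess non-Fc-tagged competitor wells subtracted. Signal was expressed as % of total binding control.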

Assay [4] addresses T4, human CD137-human Fc chimeric protein (Acro Biosystems cat no. 41B-H5258) (human, UniProt Q07011 24-186).
T4 construct: Bought protein; The Octet Protein G and Biacore experiments name no catalogue number; also called human CD137Fc recombinant protein; human CD137-Fc recombinant protein; not shown: human IgG1 Fc tag
The assay can be described thus: BLI (Octet RED384), CD137-Fc amine-coupled to AR2G sensors, 1:1 model. The protocol:
as §2

Assay [5] concerns the target T1, human PSMA expressed on cells. Put plainly: FMAT, DU145 PSMA cells. The protocol:
as §1

For assay [6] the target is unchanged. Put plainly: dual binding cell ELISA: the titrated step is the binding of the bispecific to CHO human PSMA cells; readout is bound CD137huFc (fixed 1 nM) with anti human Fc-HRP, so the value reflects dual engagement. As to the method: Dual target engagement of CD137 and PSMA by the bispecific molecules was assessed using an ELISA format. CHO-PSMA cells (20000/well) were seeded into 96 well plates (Greiner cat no. 353872) in Hams F12 supplemented with L-Glutamine+Blasticidin+Tetracycline and incubated at 37° C. with 5% CO₂ overnight. All subsequent steps were performed at room temperature and included washes with PBS between each step. Plates were blocked with PBS/0.1% BSA for 1 hour then serially diluted Humabody® VH were added and allowed to bind for 1 hour. Following removal of unbound VH, 1 nM CD137huFc (Acro Biosystems cat no. 41B-H5258) was added to the wells and incubated for 1 hour. A 1:3000 dilution of Anti-huFc-HRP (Jackson ImmunoResearch cat no. 109-035-098) was subsequently added for 1 hour and plates developed by addition of TMB. The reaction was stopped by addition of 0.5M sulphuric acid and plates read on BMG PheraStar at Absorbance 450 nm.

The target in assay [7] is T3, human CD137 expressed on the surface of …. Put plainly: FMAT, CHO human CD137 cells. As to the method:
as §1

Assay [8] concerns the target T5, CD137 on pre-stimulated human CD8+ T cells (human, UniProt Q07011 24-255).
T5 construct: also called pre-stimulated CD8+ cells; primary T cells
Put plainly: flow cytometry, PMA/ionomycin-stimulated human CD8+ T cells, mean of 2-3 donors. The protocol:
Binding to primary T cells was measured using flow cytometry. Peripheral blood mononuclear cells (PBMCs) were isolated from human blood by density gradient centrifugation then CD8+ T cells purified using a negative selection isolation kit according to the manufacturer's protocol (Miltenyi Biotech cat no 130-042-401). T-cells were stimulated PMA/Ionomycin for 48-72 hours in RPMI media supplemented with 10% FBS, 2 mM Glutamine, 1× Pen/Strep. Cells were transferred into 96 well plates, blocked for 10 mins with staining buffer (PBS/1% BSA/0.05% Sodium Azide) then incubated with serially diluted VH in staining buffer (PBS/1% BSA) for 30 mins-1 hour at 4° C. Cells were washed by centrifugation then VH binding detected using Anti His antibody (Millipore 05-949) and Goat Anti Mouse Alexa Fluor-488 (Jackson ImmunoResearch cat no. 115-545-071). A Live Dead near IR stain (Molecular Probes cat no. L10119) was used for discrimination of live cells. After further washing cells were fixed and fluorescence measured by flow cytometry.
(A flow cytometer gives signals particle by particle.)

Assay [9] addresses T4, human CD137-human Fc chimeric protein …. Put plainly: SPR (Biacore T200), single cycle kinetics, CD137-Fc captured on Protein G chip, mean ± SD; human CD137Fc. As to the method: (§3) The Biacore T200 instrument was used to study the interaction between VH with human and rhesus CD137-human IgG1 Fc tagged protein by surface plasmon resonance (SPR). Single cycle kinetics assays used to evaluate the kinetics and affinity of the interaction. Experiments were performed at 25° C. in HBS-EP+ assay buffer with a flow rate of 30 μl/minute. A Protein G chip was used to capture the Fc tagged recombinant CD137 diluted to 2 μg/ml to one of the flow cells over 7 seconds. A second flow cell without any captured CD137 was used as the reference cell. A five point, three-fold dilution series of VH was made with a top concentration of 60 nM. The binding kinetics were followed by flowing these over the chip surface. The contact time for each of the binding steps was 180 seconds and the dissociation step was 1800 and 3600 seconds for rhesus and human CD137 respectively. After each run, the sensors were regenerated with glycine pH 1.5 to remove the captured CD137. The data was fitted to a 1:1 binding model after double reference subtraction using the Biacore T200 Evaluation software.
Background: Surface plasmon resonance follows binding to a sensor surface in real time, without labels.

The target of assay [10] is T6, rhesus CD137Fc recombinant protein (Sino Biologicals cat no. 90847-K02H) (rhesus; human, UniProt H9Z8K9 24-186).
T6 construct: Bought protein; also called rhesus CD137-human IgG1 Fc tagged protein; not shown: human IgG1 Fc tag
T6 sequence: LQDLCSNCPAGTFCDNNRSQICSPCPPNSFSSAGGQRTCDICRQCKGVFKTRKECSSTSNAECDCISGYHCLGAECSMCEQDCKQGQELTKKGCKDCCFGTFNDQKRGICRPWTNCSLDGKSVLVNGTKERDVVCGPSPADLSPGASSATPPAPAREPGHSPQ
Put plainly: SPR (Biacore T200), single cycle kinetics, rhesus CD137-Fc captured on Protein G chip, mean ± SD; rhesus CD137Fc. As to the method: as §3

T1 sequence (Q04609 whole entry): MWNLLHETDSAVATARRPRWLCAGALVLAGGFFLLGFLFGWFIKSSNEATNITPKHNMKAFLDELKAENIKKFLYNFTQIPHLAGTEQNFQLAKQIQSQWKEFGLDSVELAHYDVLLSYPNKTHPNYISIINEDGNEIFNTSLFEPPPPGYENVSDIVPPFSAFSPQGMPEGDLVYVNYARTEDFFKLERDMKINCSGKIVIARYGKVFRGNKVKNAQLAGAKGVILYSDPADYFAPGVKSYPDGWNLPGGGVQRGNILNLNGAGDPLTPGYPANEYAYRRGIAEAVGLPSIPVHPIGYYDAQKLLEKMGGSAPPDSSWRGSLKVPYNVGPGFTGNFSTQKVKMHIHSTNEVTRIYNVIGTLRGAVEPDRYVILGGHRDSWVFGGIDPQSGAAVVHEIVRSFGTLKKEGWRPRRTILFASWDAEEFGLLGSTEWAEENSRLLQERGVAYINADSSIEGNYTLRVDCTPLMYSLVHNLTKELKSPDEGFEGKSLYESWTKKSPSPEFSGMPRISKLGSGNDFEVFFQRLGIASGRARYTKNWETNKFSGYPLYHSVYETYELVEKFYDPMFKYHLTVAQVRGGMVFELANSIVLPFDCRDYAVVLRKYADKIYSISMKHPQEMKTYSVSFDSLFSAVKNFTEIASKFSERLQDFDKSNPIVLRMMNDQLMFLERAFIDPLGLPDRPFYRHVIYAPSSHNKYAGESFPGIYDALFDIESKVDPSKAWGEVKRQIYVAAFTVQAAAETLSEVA
T2 sequence (Q04609 44-750 limits assumed): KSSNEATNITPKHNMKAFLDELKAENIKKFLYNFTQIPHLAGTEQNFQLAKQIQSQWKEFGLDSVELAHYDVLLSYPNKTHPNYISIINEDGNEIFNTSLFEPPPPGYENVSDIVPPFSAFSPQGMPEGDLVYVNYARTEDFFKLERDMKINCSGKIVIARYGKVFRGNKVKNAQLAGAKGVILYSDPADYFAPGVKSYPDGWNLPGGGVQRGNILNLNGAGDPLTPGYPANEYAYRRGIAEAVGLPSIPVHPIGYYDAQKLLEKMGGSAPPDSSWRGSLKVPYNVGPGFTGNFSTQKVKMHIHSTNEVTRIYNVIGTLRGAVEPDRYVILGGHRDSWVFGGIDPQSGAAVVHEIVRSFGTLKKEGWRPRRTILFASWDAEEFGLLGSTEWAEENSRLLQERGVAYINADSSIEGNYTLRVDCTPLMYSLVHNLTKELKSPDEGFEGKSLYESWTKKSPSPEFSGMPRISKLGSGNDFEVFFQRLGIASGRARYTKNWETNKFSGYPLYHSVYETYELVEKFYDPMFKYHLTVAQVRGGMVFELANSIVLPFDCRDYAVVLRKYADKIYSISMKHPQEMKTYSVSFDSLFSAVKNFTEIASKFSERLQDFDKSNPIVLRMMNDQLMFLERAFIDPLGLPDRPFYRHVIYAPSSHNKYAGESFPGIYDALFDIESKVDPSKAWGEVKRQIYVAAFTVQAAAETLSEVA
T3 sequence (Q07011 24-255 limits assumed): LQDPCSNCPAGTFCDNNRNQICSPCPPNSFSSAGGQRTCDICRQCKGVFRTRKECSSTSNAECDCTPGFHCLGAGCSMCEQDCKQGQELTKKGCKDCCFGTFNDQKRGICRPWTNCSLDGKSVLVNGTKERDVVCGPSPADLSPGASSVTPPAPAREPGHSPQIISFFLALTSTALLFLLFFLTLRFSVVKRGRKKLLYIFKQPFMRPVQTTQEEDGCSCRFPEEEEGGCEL
T5 sequence (Q07011 24-255 limits assumed): as above

B1: 4.1(PSMA-binding VH)-6GS-2.1 (bispecific antibody)
chain: EVQLVESGGGVVQPGRSLRLSCAASGFSFSGYGMHWVRQAPGKGLEWVAYISYDGSNKYYADSVKGRFTISRDNSKNTLYLQMNSLRAEDTAVYYCAKDPAWGLRLGESSSYDFDIWGQGTMVTVSSGGGGSGGGGSGGGGSGGGGSGGGGSGGGGSEVQLVESGGGLVKPGGSLRVSCAASGFTFSDYYMSWFRQAPGKGLEWVSYISGSGDIIDYADSVKGRFTISRDNAKNSLYLQMNNLRAEDTAVYHCAREDSRLTGTTDFDNWGQGTLVTVSS
notes: tandem VH, PSMA x CD137; also called 4.1-6GS-2.1; not shown: His tag
As for B1, the EC50 in [1] worked out at 0.28 nM; in [5], 0.39 nM; in assay [7] it was 0.97 nM; in assay [8], 3 nM. Moreover, the Kd in assay [2] is 0.66 nM; in assay [4], 4.8 nM. Moreover, the koff in assay [2] was determined as 0.00033 s⁻¹; in assay [4] it was 0.0026 s⁻¹. For the same molecule, the kon in [2] came to 500000 M⁻¹ s⁻¹; in assay [4], 580000 M⁻¹ s⁻¹. The IC50 in [3] is 13 nM. The “EC50 (read off the curve)” value in assay [6] was about 1 nM.

B2: 4.1(PSMA-binding VH)-6GS-1.1 (bispecific antibody)
chain: EVQLVESGGGVVQPGRSLRLSCAASGFSFSGYGMHWVRQAPGKGLEWVAYISYDGSNKYYADSVKGRFTISRDNSKNTLYLQMNSLRAEDTAVYYCAKDPAWGLRLGESSSYDFDIWGQGTMVTVSSGGGGSGGGGSGGGGSGGGGSGGGGSGGGGSEVQLVESGGGLVQPGGSLRLSCAASGFTFSSHWMTWFRQAPGKGLEWVAHIKEDGSEKYYEDSVEGRFTVSRDNAKNSVYLQMNSLRAEDTAVYYCARGGDGYSDSHFGVDVWGQGTTVTVSS
notes: tandem VH, PSMA x CD137; also called 4.1-6GS-1.1; not shown: His tag
B2: the EC50 in [1] was 0.19 nM; in assay [5], 0.21 nM; in [7], 0.43 nM; in [8], 0.73 nM. Moreover, the figures for the Kd in assay [2] and in assay [4] were 1.3 nM and 0.73 nM, respectively. For the same molecule, the figures for the koff in [2] and in assay [4] were 0.00054 s⁻¹ and 0.00031 s⁻¹, respectively. Further, the kon in assay [2] came to 430000 M⁻¹ s⁻¹; in assay [4] it was 410000 M⁻¹ s⁻¹. In addition, half-maximal inhibition in assay [3] (IC50) required 2.5 nM. Moreover, the “EC50 (read off the curve)” value in [6] is about 0.8 nM.

B3: Humabody VH 1.113 (VHH)
VH: EVQLVESGGGLVQPGGSLRLSCAASGFTLSNYWMNWVRQAPGKGLEWVANINQDGSERYYVDSVKGRFTISRDNAKNSLYLQMNSLRAEDTAVYYCARGGEGYGVDHYGLDVSGQGTTVTVSSHHHHHH
notes: human single VH domain
The molecule B3 had an IC50 in [3] of 0.73 nM. Besides, in [9], binding was characterised by a dissociation constant (Kd) of 0.085 nM, the koff came out at 0.0003 s⁻¹ and the kon was 3.6e+06 M⁻¹ s⁻¹. In addition, in [10], the Kd is 0.27 nM, the koff was 0.00028 s⁻¹ and the kon was determined as 1.1e+06 M⁻¹ s⁻¹. It took 0.09 nM to reach a half-maximal effect in [7] (EC50).
